According to patent US9994644B2, “mAB 2 anti-Met antibody” (Agency for Science, Technology and Research, priority 2013, dated 2018):
“Also recorded” adds a separate entry of the source.

Columns and labels:
SNU-5 cells [1] = assay: CellTiter-Glo luminescent cell viability assay; format: cell-based, human; conditions: SNU-5, 72 hrs; mAb 10 μg/mL, SU11274 5 μM
Method: (§1) In order to determine if these antibodies have any physiological effects on tumour cells, 10 μg/mL of mAb was added to SNU-5 cells. […] This indicates SU11274 mode of mechanism is by activation of caspase which in turn result in apoptosis of SNU-5 tumour cells.
(§2) CellTiter-Glo® luminescent cell viability assay and Caspase-Glo® 3/7 Assay (Promega, U.S.A.) were used to determine cell viability and caspase activation respectively. SNU-5 cells (1×10^5 cells) were seeded in each 96-well and treated for 72 hrs before analysis. Cell viability and caspase activation were performed according to manufacturer's protocol. Luminescence was read using the EnVision plate reader (PerkinElmer, U.S.A.).

[2] = test system: caspase activation in SNU-5 cells; assay: Caspase-Glo 3/7 caspase activation assay; format: cell-based, human; conditions: SNU-5, 72 hrs; mAb 10 μg/mL, SU11274 5 μM
Method: as §1, §2

SNU-5 cells [3] = assay: Cell growth by cell count (ADAM cell counter); format: cell-based, human; conditions: SNU-5, 10 μg/mL mAb, 72 hours post treatment
Method: as §1
Cells were seeded and treated with anti-α-chain c-Met monoclonal antibodies for 72 hrs. Cells were harvested and counted using the automated ADAM cell counter (Digital Bio, Korea).

c-Met α-chain peptides [4] = biological target: T1, c-Met α-chain peptides (Homo sapiens, UniProt P08581); assay: Pepscan ELISA-based epitope mapping; format: binding; design: mAb 2 binding to peptide O27: dose or concentration left out as unconfirmed; conditions: absorbance at 450 nm
T1 construct: consecutive overlapping peptides that span the entire c-Met α-chain; purchased Mimotopes (Australia); host or cells: chemical synthesis
Method: (§3) Identifying the region of c-Met bound by the antibody is important in determining whether the antibody might be able to block c-Met from binding to its ligand, HGF. Using an ELISA-based assay (Pepscan), synthesised peptides were added to strepatvidin-coated plates and antibody binding to their respective epitopes was determined colorimetrically. The peptides were consecutive overlapping peptides that span the entire c-Met α-chain.
(§4) Peptides that were linked to biotin by an SGSG linker sequence at the N-terminus were synthesised by Mimotopes (Australia). Peptides for Pepscan: Peptides that span the entire α-chain of c-Met were synthesised. A total of fifty-five peptides with consecutive, overlapping sequences were synthesised. […]
(§5) Variations of peptides O28 and O29, where each amino acid residue was sequentially substituted for an alanine residue, were synthesised. […] Colour change was monitored by eye and the reaction was stopped by adding 100 mM sulphuric acid. Absorbance was read at 450 nm in a microplate reader (SPECTRAmax PLUS^384, Molecular Device, U.S.A.). […] Computer imaging of the epitopes were analysed by PyMol (DeLano Scientific LLC, U.S.A.) software.
(§6) Pepscan analysis was used to determine the region of c-Met α-chain bound by mAb 2. […] Binding of the antibody was detected by colorimetric assay and analysed by absorbance reading at […].

c-Met α-chain peptides [5] = assay: Pepscan ELISA-based epitope mapping; format: binding, human; design: mAb 2 binding to peptide O27: dose or concentration left out as unconfirmed; conditions: absorbance at 450 nm
Method: as §3, §4, §5, §6

B1: mAb 2: murine bivalent anti-α-chain c-Met monoclonal antibody, IgG1, kappa; CDRs SEQ ID NO: 2-7; epitope IEE and CPDC (antibody, listed as Homo sapiens)
heavy: QVQLKESGGGLVQPGGSLTLSCATSGFTFTDHYMSWVRQPPGKALEWLAFIRNKAKGYTTEYNASVRGRFTISRDNSQNIVYLQMNTLRTEDSATYYCARDGVGIAYWGQTLVTVSAAKTTPPSVYPLAP
light: SIVMTQSPLSLPVSLGDQASISCRSSQSLENINGNTYKNWYFQKPGQSPQLLIYRVSNRVSGVLDRFSGSGSGTDFTLKITRVEAEDLGVYFCLQVTHVPWTFGGGTKLEIKRADAAPTKSIS
- cell viability (SNU-5 cells [1]): reduced cell viability
- caspase activation [2]: reduced caspase activation; also recorded: do not activate caspase activation
- cell growth (cell count) (SNU-5 cells [3]): strongest cell growth reduction; also recorded: reduction of SNU-5 cell growth; also recorded: most effective in reducing cell proliferation
- mAb 2 binding to peptide O27 (c-Met α-chain peptides [4]): does not bind
- mAb 2 binding to peptides O28 and O29 (c-Met α-chain peptides [5]): equal affinity; also recorded: no binding preference
